Consider 27 molecules from patent US20230365662A1.

The target of this assay is HRgpA-6H (Porphyromonas gingivalis) (UniProt P28784). The assay can be described thus: ELISA, Fab FASEBA supernatant on coated HRgpA-6H (0.0625 ug/ml). On the technique in general: An ELISA detects its analyte on a solid surface through an enzyme-linked reagent.

Where a chain is given by its changes, count along the chain named. Names may count otherwise. “And” between values parts separate entries of the source, which are not always exact repeats. Equal entries are not always repeated.

Chain of UniProt P28784 (P28784 228-991 limits assumed): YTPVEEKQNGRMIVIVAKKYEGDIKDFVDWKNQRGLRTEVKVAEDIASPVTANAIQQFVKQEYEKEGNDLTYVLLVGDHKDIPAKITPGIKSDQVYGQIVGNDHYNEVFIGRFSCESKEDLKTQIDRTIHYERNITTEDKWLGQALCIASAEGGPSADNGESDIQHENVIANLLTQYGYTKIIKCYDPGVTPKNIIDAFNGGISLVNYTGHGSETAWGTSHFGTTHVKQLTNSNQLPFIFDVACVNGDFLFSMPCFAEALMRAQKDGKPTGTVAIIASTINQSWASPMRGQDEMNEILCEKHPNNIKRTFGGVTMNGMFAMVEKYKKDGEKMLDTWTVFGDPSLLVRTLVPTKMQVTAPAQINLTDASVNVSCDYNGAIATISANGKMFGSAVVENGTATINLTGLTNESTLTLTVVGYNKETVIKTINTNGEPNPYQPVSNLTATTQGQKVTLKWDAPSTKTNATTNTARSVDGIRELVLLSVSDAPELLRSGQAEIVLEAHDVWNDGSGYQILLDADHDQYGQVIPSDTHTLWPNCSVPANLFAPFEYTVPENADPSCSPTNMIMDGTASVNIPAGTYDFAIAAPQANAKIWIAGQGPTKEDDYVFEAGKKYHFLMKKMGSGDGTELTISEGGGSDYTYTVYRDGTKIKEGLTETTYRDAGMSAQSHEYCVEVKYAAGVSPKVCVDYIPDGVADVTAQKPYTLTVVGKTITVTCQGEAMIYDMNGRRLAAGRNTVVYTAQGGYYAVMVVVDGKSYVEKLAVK

B1: KB001 parental mouse Fab VH variant S65F (Fab, V domains shown)
VH: EVQLKQSGPGLVAPSQSLSITCTVSGFSLSIYSVHWVRQPPGKGLEWLGMIWGGGSSDYNSALKFRLSISKDNSKSQVFLKMNSLQTDDTAMYYCARNGNFYAMDYWGQGTSVTVSS
VL: QIVLTQSPAIMSASLGERVTMTCTASSSVSSSFLHWYQQKPGSSPQLWIYSTSNLASGVPARFSGSGSGTSYSLTISSMEAEDAATYYCHQYHHSPYIYTFGGGTKLEIK
In the case of B1, the OD450nm was 0.74 and the Ratio OD(Variant)/OD(WT) was found to be 0.895.

B2: KB001 parental mouse Fab VH variant F101S (Fab, V domains shown)
VH: B1 VH with F65S, F101S
VL: B1 VL
In the case of B2, the OD450nm was 0.678 and 0.725; the Ratio OD(Variant)/OD(WT) was 0.8 and 0.856.

B3: KB001 parental mouse Fab VH variant G99N (Fab, V domains shown)
VH: B1 VH with F65S, G99N
VL: B1 VL
On to B3, for which the OD450nm was 0.639 and 0.698; the Ratio OD(Variant)/OD(WT) is 0.802 and 0.876.

B4: KB001 parental mouse Fab VH variant N100K (Fab, V domains shown)
VH: B1 VH with F65S, N100K
VL: B1 VL
For B4, the OD450nm is 0.801 and 0.791; the Ratio OD(Variant)/OD(WT) is 0.946 and 0.934.

B5: KB001 parental mouse Fab VH variant N100S (Fab, V domains shown)
VH: B1 VH with F65S, N100S
VL: B1 VL
As to B5, the OD450nm was 0.799 and 0.844 and 0.805; the Ratio OD(Variant)/OD(WT) is 0.943 and 0.996 and 0.95.

B6: KB001 parental mouse Fab VH variant S65G (Fab, V domains shown)
VH: B1 VH with F65G
VL: B1 VL
Regarding B6, the OD450nm was determined as 0.825 and the Ratio OD(Variant)/OD(WT) is 0.998.

B7: KB001 parental mouse Fab VH variant N100C (Fab, V domains shown)
VH: B1 VH with F65S, N100C
VL: B1 VL
In the case of B7, the OD450nm was determined as 0.688 and the Ratio OD(Variant)/OD(WT) was found to be 0.812.

B8: KB001 parental mouse Fab VH variant N100Q (Fab, V domains shown)
VH: B1 VH with F65S, N100Q
VL: B1 VL
For B8, the OD450nm was 0.846 and the Ratio OD(Variant)/OD(WT) came to 0.999.

B9: KB001 parental mouse Fab VH variant S65L (Fab, V domains shown)
VH: B1 VH with F65L
VL: B1 VL
As to B9, the OD450nm was 0.728 and the Ratio OD(Variant)/OD(WT) worked out at 0.88.

B10: KB001 parental mouse Fab VH variant G99F (Fab, V domains shown)
VH: B1 VH with F65S, G99F
VL: B1 VL
Consider B10, for which the OD450nm is 0.771 and the Ratio OD(Variant)/OD(WT) was 0.967.

B11: KB001 parental mouse Fab VH variant N100P (Fab, V domains shown)
VH: B1 VH with F65S, N100P
VL: B1 VL
As to B11, the OD450nm worked out at 0.757 and the Ratio OD(Variant)/OD(WT) was found to be 0.894.

B12: KB001 parental mouse Fab VH variant N100T (Fab, V domains shown)
VH: B1 VH with F65S, N100T
VL: B1 VL
With B12, the OD450nm was 0.756 and 0.783; the Ratio OD(Variant)/OD(WT) was 0.893 and 0.924.

B13: KB001 parental mouse Fab VH variant F101M (Fab, V domains shown)
VH: B1 VH with F65S, F101M
VL: B1 VL
Regarding B13, the OD450nm came to 0.755 and the Ratio OD(Variant)/OD(WT) amounted to 0.891.

B14: KB001 parental mouse Fab VH variant N100F (Fab, V domains shown)
VH: B1 VH with F65S, N100F
VL: B1 VL
As for B14, the OD450nm was 0.779 and the Ratio OD(Variant)/OD(WT) stood at 0.92.

B15: KB001 parental mouse Fab VH variant N100L (Fab, V domains shown)
VH: B1 VH with F65S, N100L
VL: B1 VL
Take B15: the OD450nm is 0.817 and 0.736 and 0.789; the Ratio OD(Variant)/OD(WT) was 0.965 and 0.869 and 0.932.

B16: KB001 parental mouse Fab VH variant N100R (Fab, V domains shown)
VH: B1 VH with F65S, N100R
VL: B1 VL
As for B16, the OD450nm is 0.788 and the Ratio OD(Variant)/OD(WT) came out at 0.93.

B17: KB001 parental mouse Fab VH variant G99Y (Fab, V domains shown)
VH: B1 VH with F65S, G99Y
VL: B1 VL
As to B17, the OD450nm amounted to 0.769 and the Ratio OD(Variant)/OD(WT) turned out to be 0.965.

B18: KB001 parental mouse Fab VH variant N100Y (Fab, V domains shown)
VH: B1 VH with F65S, N100Y
VL: B1 VL
On to B18, for which the OD450nm is 0.757 and 0.784 and 0.699; the Ratio OD(Variant)/OD(WT) is 0.894 and 0.926 and 0.825.

B19: KB001 parental mouse Fab VH variant S65T (Fab, V domains shown)
VH: B1 VH with F65T
VL: B1 VL
Turning to B19, the OD450nm stood at 0.759 and the Ratio OD(Variant)/OD(WT) was found to be 0.918.

B20: KB001 parental mouse Fab VH variant F101W (Fab, V domains shown)
VH: B1 VH with F65S, F101W
VL: B1 VL
B20: the OD450nm is 0.825 and 0.828 and 0.802; the Ratio OD(Variant)/OD(WT) is 0.974 and 0.978 and 0.947.

B21: KB001 parental mouse Fab VH variant N100I (Fab, V domains shown)
VH: B1 VH with F65S, N100I
VL: B1 VL
Take B21: the OD450nm is 0.796 and 0.833; the Ratio OD(Variant)/OD(WT) was 0.94 and 0.983.

B22: KB001 parental mouse Fab VH variant N100A (Fab, V domains shown)
VH: B1 VH with F65S, N100A
VL: B1 VL
On to B22, for which the OD450nm was determined as 0.809 and the Ratio OD(Variant)/OD(WT) worked out at 0.955.

B23: KB001 parental mouse Fab VH variant G99C (Fab, V domains shown)
VH: B1 VH with F65S, G99C
VL: B1 VL
Regarding B23, the OD450nm worked out at 0.776 and the Ratio OD(Variant)/OD(WT) stood at 0.974.

B24: KB001 parental mouse Fab VH variant N100E (Fab, V domains shown)
VH: B1 VH with F65S, N100E
VL: B1 VL
B24: the OD450nm was determined as 0.823 and the Ratio OD(Variant)/OD(WT) worked out at 0.972.

B25: KB001 parental mouse Fab VH variant G99A (Fab, V domains shown)
VH: B1 VH with F65S, G99A
VL: B1 VL
On to B25, for which the OD450nm stood at 0.74 and the Ratio OD(Variant)/OD(WT) came to 0.928.

B26: KB001 parental mouse Fab VH variant N100G (Fab, V domains shown)
VH: B1 VH with F65S, N100G
VL: B1 VL
For B26, the OD450nm is 0.769 and 0.814; the Ratio OD(Variant)/OD(WT) was 0.908 and 0.961.

B27: KB001 parental mouse Fab VH variant G99S (Fab, V domains shown)
VH: B1 VH with F65S, G99S
VL: B1 VL
B27: the OD450nm was 0.769 and 0.739 and 0.77; the Ratio OD(Variant)/OD(WT) is 0.965 and 0.927 and 0.966.
